# In patent US20040123344A1, “Novel gene encoding an f-box protein which regulates leaf longevity in arabidopsis thaliana and mutant gene thereof” (priority 2000, published 2004):
# T1: ASK2(1-172) (Arabidopsis thaliana, UniProt Q9FHW7)
# T1 construct: the plasmid pGAD424-ASK2(1-172)[4] was constructed by inserting a BamHI/PstI fragment of pGTE-ASK2(1-172) into pGAD424; expressed in transfected cells; host or cells: Saccharomyces cerevisiae HF7c
# T1 sequence (Q9FHW7 1-171): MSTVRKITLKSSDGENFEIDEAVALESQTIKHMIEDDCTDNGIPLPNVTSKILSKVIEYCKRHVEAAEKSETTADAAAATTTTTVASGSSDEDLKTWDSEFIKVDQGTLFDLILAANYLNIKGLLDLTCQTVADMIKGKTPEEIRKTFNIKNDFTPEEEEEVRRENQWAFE
# T2: GST-ASK1 fusion protein (Arabidopsis thaliana, UniProt Q39255)
# T2 construct: made in house; host or cells: Escherichia coli BL21(DE3) pLysS
# T2 sequence (Q39255 1-160): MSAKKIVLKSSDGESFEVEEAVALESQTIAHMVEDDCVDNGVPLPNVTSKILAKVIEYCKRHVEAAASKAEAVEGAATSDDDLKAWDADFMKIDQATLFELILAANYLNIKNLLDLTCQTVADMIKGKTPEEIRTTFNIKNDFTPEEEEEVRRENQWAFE
# Columns and labels:
# [1] = biological target: T1, ASK2(1-172); test: Yeast two-hybrid assay with ASK2; type: cell-based; conditions: HF7c yeast
# Excerpt: As expression vectors of expressing GAL4 DNA binding domain (GAL4-BD) and ORE9 fusion protein, plasmids pGBT9-ORE9 (1-49) and pGBT9-ORE9 (50-693) were constructed. The plasmid pGBT9-ORE9 expresses a fragment of ORE9 containing N-terminal 1-49th amino acids corresponding to an F-box region of ORE9, and the plasmid pGBT9-ORE9 (50-693) expresses a fragment of ORE9 containing 50-693th amino acids from which the F-box region was removed.
# First, the gene encoding the ORE9 (1-49) fragment was amplified by PCR using a primer represented by SEQ ID NO: 10 and SEQ ID NO: 11, and then inserted into BamHI and PstI restriction enzyme sites of pGBT9 (Clontech, USA) containing a 4-BD gene and a tryptophan auxotrophic selection marker gene (TRP1), thereby constructing the plasmid pGBT9-ORE9 (1-49). Similarly, the plasmid pGBT 9-ORE9 (50-693) was constructed, which expresses an ORE9 (50-693) fragment and a GAL4-BD fusion protein. In this case, oligonucletides represented by SEQ ID NO: 12 and SEQ ID NO: 13 were used as PCR primers to amplify the gene encoding the ORE9 (50-693) fragment. […]
# [2] = biological target: T2, GST-ASK1 fusion protein; test: In vitro binding assay with GST-ASK1 fusion protein; conditions: 35S-labeled in vitro translation product; glutathione beads; GST as negative control
# Excerpt: In order to examine that ORE9 protein or derivatives thereof directly bind with ASK1, a GST-ASK1 fusion protein and a ^35S-labeled ORE9 protein produced by in vitro translation were subjected to in vitro binding assay. To obtain a glutathione S-transferase (GST) protein and a GST-ASK1 fusion protein, a vector pGEX (APBiotech, Co.) and a vector pGEX-ASK1 were constructed, which express the above proteins, respectively. Artificial sequences represented by SEQ ID NO: 14 and SEQ ID NO: 15 were used as PCR primers to amplify a gene encoding the ASK1 fragment. The resulting PCR product was digested with EcoRI and NcoI restriction enzymes, and inserted into the restriction enzyme sites of the pGEX vector. Escherichia coli BL21(DE3) pLysS was transformed with the resulting two vectors, and GST and GST-ASK1 fusion proteins were expressed. The GST and GST-ASK1 fusion proteins were purified by chromatography with glutathione-Sepharose 4B beads. The purified proteins was subjected to electrophoresis with SDS-polyacryamide gets, dyed with Coomassie blue, and measured for their amount. GST and GST-ASK1 fusion proteins of the same amount were added to glutathione beads, which had been previously washed with 10-fold volume of B buffer (20 mM […], pH 7.6, 150 mM sodium chloride, 10% glycerol, 0.5% NP-40, 1 mM DTT) three times. Then, the resulting proteins were adsorbed 4° C. for one hour using a rotating mixer. The provided beads were washed with 1 ml B buffer three times, and then stored in a state where the ratio of slurries relative to B buffer is 50%.
# Meanwhile, a radioactivity-labeled ORE9 (1-693), the mutant type ore9 and ORE9 derivatives (1-327 and 50-693) were prepared using the in vitro transcription/translation system (Promega, USA) and [^35S]-methionine (DuPont NEN, USA). The proteins were quantitatively analyzed with SDS-PAGE and BAS radioanalytic imaging system (Japan). Then, the respective ^35S-labeled translation products of the same amount were mixed with 60 μl GST-adsorbed beads or GST-ASK1 fusion protein-absorbed beads, contained in 1 ml GB buffer (final concentration: 20 mM Tris-HCl, pH 7.5, 0.15% NP-40, 150 mM NaCl, 1 mM EDTA). The resulting beads were cultured in a rotating mixer at 4° C. for two hours, and then washed with 1 ml GB buffer four times. The washed beads were added with 30 μl of 2×SDS sample solutions, boiled for three minutes and then isolated with SDS-PAGE. The resulting gels were dried to dryness, and then exposed to X-ray film.
molecule,measurement,setting,value
"ore9: mutant protein with early translation termination, 8 LRRs, SEQ ID NO: 3 (protein, listed as Arabidopsis thaliana) MASTTLSDLPDVILSTISSLVSDSRARNSLSLVSHKFLALERSTRSHLTIRGNARDLSLVPDCFRSISHLDLSFLSPWGHTLLASLPIDHQNLLALRLKFCFPFVESLNVYTRSPSSLELLLPQWPRIRHIKLLRWHQRASQIPTGGDFVPIFEHCGGFLESLDLSNFYHWTEDLPPVLLRYADVAARLTRLDLLTASFTEGYKSSEIVSITKSCPNLKTFRVACTFDPRYFEFVGDETLSAVATSSPKLTLLHMVDTASLANPRAIPGTEAGDSAVTAGTLIEVFSGLPNLEELVLDVGKDVKHSGVALEALNSKCKKLRVLKLG",binding with ASK2 in yeast two-hybrid assay,[1],didn't bind to each other
same,binding (co-precipitation) with GST-ASK1,[2],co-precipitated with the GST-ASK1 fusion protein
